Earlier results, collected in PMC11988805.

Columns and labels:
[1] = target: stapled BH3 peptide BH3 (Homo sapiens) (UniProt P55957)
[2] = target: unstapled BH3 peptide BH3 (Homo sapiens) (UniProt P55957)

Kd [1]: 38.8 nM | Kd [2]: 269 nM
Substance: Bcl-2 (from UniProt P10415)
